This note sets out measurements from patent publication US20250257149A1.

For experiment [1], the target named is MUC1 tandem repeat peptide …-T(X)-… with GalNAcalpha (Tn) at T (human). The experiment can be described thus: antigen ELISA on Tn-PDTR MUC1 peptide, purified antibody [panel Binding to Tn-MUC1].
In experiment [2] the target is MUC1 tandem repeat peptide …-T(X)-… with Galβ1-3GalNAcalpha (TF) at T (human). As to the kind of experiment: antigen ELISA on TF-PDTR MUC1 peptide, purified antibody [panel Binding to TF-MUC1]. On the technique in general: ELISA stands for enzyme-linked immunosorbent assay.
MUC1 tandem repeat peptide …-T(X)-… with Galβ1-3GalNAcalpha (TF) at T (human), sequence (peptide, as listed by the source): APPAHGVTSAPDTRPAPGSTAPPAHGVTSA

MUC1 tandem repeat peptide …-T(X)-… with GalNAcalpha (Tn) at T (human), sequence (peptide, as listed by the source): as above

PankoMab N54W (antibody): the concentration giving a half-maximal response (EC50 (read off the curve)) – broadly, the concentration giving half of the maximal effect – in experiment [1] amounted to 10 ng/mL; in experiment [2] it was 8 ng/mL.
